{"source": "paper PMC7519303", "target": "SgmX-Strep (C-terminal Strep-tagged SgmX variant) (M. xanthus)", "test": "SDS/PAGE of the purified protein; purified SgmX-Strep; band of ~233 kDa, heat- and detergent-resistant dimer"}
{"substance": "SgmX-Strep (C-terminal Strep-tagged SgmX variant) (natural protein)", "values": [{"measurement": "stoichiometry N", "value": 2}]}
